Test results published in paper PMC6801647, “Crystal Structure of Kluyveromyces lactis Glucokinase (KlGlk1)” (International Journal of Molecular Sciences, 2019).
One block for each molecule: values may come before it.

Key:
[1] = molecular target: Kluyveromyces lactis glucokinase (KlGlk1) (Kluyveromyces lactis) (UniProt Q6CUZ3); test: SEC-MALS; size-exclusion chromatography (Superdex 200 Increase 10/300 GL) coupled to right-angle/low-angle light scattering (RALS/LALS) and refractive index, OMNISEC REVEAL; 50 mM Tris pH 7.8, 200 mM NaCl, 5 mM beta-ME
[2] = substrate: Nc1ncnc2c1ncn2[C@@H]1O[C@H](COP(=O)(O)OP(=O)(O)OP(=O)(O)O)[C@@H](O)[C@H]1O; test: G6PD-coupled assay, fit over ATP range preceding substrate inhibition; format: biochemical, Kluyveromyces lactis; conditions: 0.5 mM glucose, 5 mM MgCl2, 50 mM KCl, 250 mM sucrose, 20 mM Tris-HCl pH 7.4, 37 °C, Hill coefficient 1.97 at low ATP, substrate inhibition from 0.25 mM ATP

- stoichiometry N [1]: 2
Molecule: Kluyveromyces lactis glucokinase (KlGlk1) (from UniProt Q6CUZ3 49-481) (enzyme)

B1: KlGlk1 (Kluyveromyces lactis NRRL Y-1140) (protein)
chain: SDPKLTKAVDSICDQFIVTKSKISQLTEYFIDCMEKGLEPCESDISQNKGLPMIPTFVTDKPSGQEHGVTMLAADLGGTNFRVCSVELLGNHEFKIEQEKSKIPTFFFQDDHHVTSKDLFQHMALITHQFLTKHHKDVIQDYKWKMGFTFSYPVDQTSLSSGKLIRWTKGFKIGDTVGQDVVQLFQQELNDIGLSNVHVVALTNDTTGTLLARCYASSDAARAINEPVIGCIFGTGTNGCYMEKLENIHKLDPASREELLSQGKTHMCINTEWGSFDNELNHLPTTSYDIKIDQQFSTNPGFHLFEKRVSGLYLGEILRNILLDLEKQELFDLKESVLKNNPFILTTETLSHIEIDTVENDLQDTRDALLKAADLETTFEERVLIQKLVRAISRRAAFLAAVPIAAILIKTNALNQSYHCQVEVGCDGSVVEHYPGFRSMMRHALALSPIGPEGERDVHLRISKDGSGVGAALCALHANY
notes: codon-optimized synthetic gene in pET24d, E. coli BL21 (DE3); N-terminal His-tag removed with TEV protease; dimer in solution (100 kDa apparent); crystal model residues 2-481
- Km [2]: 150 µM
- kcat [2]: 400 s⁻¹
